Reference: patent US6531296

Columns and labels:
[1] = tested on: QAg mutant with tyrosine 490 changed to phenylalanine
[2] = tested on: QAg mutant with tyrosine 497 changed to phenylalanine
[3] = tested on: QAg mutant with tyrosine 463 changed to phenylalanine
[4] = tested on: QAg, hexahistidine fusion protein of the carboxy-terminal 62 amino acids of Rak
[5] = tested on: QAg mutant with tyrosine 450 changed to phenylalanine

p50^csk, cytoplasmic tyrosine kinase CSK purified from baculovirus-infected insect cells, sequence (P41240 whole entry): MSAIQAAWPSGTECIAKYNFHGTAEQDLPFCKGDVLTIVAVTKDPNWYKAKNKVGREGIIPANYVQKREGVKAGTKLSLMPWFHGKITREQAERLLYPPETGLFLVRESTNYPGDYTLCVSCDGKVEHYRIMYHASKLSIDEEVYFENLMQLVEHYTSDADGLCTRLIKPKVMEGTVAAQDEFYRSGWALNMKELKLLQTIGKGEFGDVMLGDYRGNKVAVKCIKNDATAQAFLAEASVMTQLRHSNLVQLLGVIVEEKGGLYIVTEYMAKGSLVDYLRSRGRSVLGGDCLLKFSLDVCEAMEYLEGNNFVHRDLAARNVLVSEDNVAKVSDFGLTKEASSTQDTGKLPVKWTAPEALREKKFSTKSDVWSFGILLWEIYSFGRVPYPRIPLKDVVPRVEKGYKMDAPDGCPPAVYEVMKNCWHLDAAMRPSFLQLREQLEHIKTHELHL

p50^csk, cytoplasmic tyrosine kinase CSK purified from baculovirus-infected insect cells
phosphorylation by CSK (in vitro kinase assay) (fraction of wild-type peptide) [1]: 0.5
phosphorylation by CSK (in vitro kinase assay) [2]: Phosphorylation of the 497 mutant, however, was barely detectable
phosphorylation by CSK (in vitro kinase assay) [3]: The mutant at position 463 was phosphorylated at levels equivalent to the wild-type peptide
phosphorylation by CSK (in vitro kinase assay) [4]: This peptide was readily phosphorylated by CSK
phosphorylation by CSK (in vitro kinase assay) (fraction of wild-type peptide) [5]: 0.5
